Experimental findings from US20110207656A1 (Dana-Farber, published 2011) are described below.

The assay addresses T1, purified FADD protein (human, UniProt Q13158 1-208, limits assumed).
T1 sequence: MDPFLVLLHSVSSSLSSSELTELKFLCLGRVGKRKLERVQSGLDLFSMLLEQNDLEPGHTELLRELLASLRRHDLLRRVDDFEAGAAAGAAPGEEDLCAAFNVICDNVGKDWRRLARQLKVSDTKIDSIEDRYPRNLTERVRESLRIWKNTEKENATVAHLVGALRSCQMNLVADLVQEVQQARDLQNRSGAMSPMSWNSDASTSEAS
As to the kind of experiment: GST pull-down of purified FADD, anti-FADD immunoblot. As to the method: In vitro binding assays. Purified GST, GST-MUC1-CD(1-72), GST-MUC1-CD deletion mutants, GST-caspase-8, GST-caspase-8 deletion mutants, GST-FADD, GST-N-FADD and GST-C-FADD protein (36) were purified from E. coli (BL21 DE3) and immobilized on glutathione-agarose beads (Pierce). His-MUC1-CD(1-72) and His-caspase-8 deletion mutant proteins were purified on Ni-NTA beads (Qiagen, Valencia, Calif.). GST and GST fusion proteins bound to glutathione beads were incubated with purified soluble proteins for 2 hours at 4° C., and washed. Adsorbates bound to the beads were analyzed by solubilizing the protein/bead mixture in Laemli buffer following by sodium dodecyl sulfate polyacrylamide gel electrophoresis (SDS-PAGE) and immunoblotting. For competition studies, GST-caspase-8 DED protein bound to FADD was incubated with increasing amounts of MUC1-CD protein. Precipitated proteins were subjected to SDS-PAGE and immunoblot analysis. In certain studies, binding was performed in the presence of a synthetic peptide ([…]) (SEQ ID NO:3) derived from amino acids 1-20 from MUC1-CD (Molecular Biology Core Facility, Dana-Farber Cancer Institute).
Background: Immunoblotting shows a protein as a band on a membrane.

Ends that are not written are not given here.

B1: GST-MUC1-CD(1-45) (other)
chain: {GST}-CQCRRKNYGQLDIFPARDTYHPMSEYPTYHTHGRYVPPSSTDRSP
modifications: cysteine pairing not given here; also: linker to GST not given here
notes: also called GST-MUC1-CD deletion mutant; not shown: GST fusion partner at the N end, and any linker to it
For B1, the binding result is “no binding”.
